In test [1] the target is EcSkp, biotin conjugate (naked chaperone without fused target) (Escherichia coli) (UniProt P0AEU7). The test is described as follows: asymmetric DAGS ECL, Skp-Bi and FkpA-Ru 10 ng/ml each; sample: pool of anti-HTLV-negative human sera; background signal, duplicate 2.
Test [2] has the same target. The test is described as follows: asymmetric DAGS ECL, Skp-Bi and FkpA-Ru 250 ng/ml each; sample: pool of anti-HTLV-negative human sera; background signal, duplicate 1.
The target is the same in test [3]. The test is described as follows: asymmetric DAGS ECL, Skp-Bi and FkpA-Ru 10 ng/ml each; sample: pool of anti-HTLV-negative human sera; background signal, duplicate 1.
For test [4] the target is unchanged. The experiment in a line: asymmetric DAGS ECL, Skp-Bi and FkpA-Ru 250 ng/ml each; sample: pool of anti-HTLV-negative human sera; background signal, duplicate 2.
Test [5] deals with EcFkpA, biotin conjugate (naked chaperone without fused target) (Escherichia coli) (UniProt P45523). The test is described as follows: asymmetric DAGS ECL, FkpA-Bi and Skp-Ru 250 ng/ml each; sample: pool of anti-HTLV-negative human sera; background signal, duplicate 2.
UniProt P45523, sequence (P45523 26-270 limits assumed): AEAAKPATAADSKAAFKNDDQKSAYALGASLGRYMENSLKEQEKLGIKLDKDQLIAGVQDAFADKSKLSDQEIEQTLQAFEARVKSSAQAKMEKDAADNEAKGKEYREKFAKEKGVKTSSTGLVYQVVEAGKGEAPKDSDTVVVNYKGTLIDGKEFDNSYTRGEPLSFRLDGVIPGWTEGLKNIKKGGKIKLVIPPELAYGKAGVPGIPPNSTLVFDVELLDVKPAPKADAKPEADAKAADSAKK
Test [6] shares this target. The test is described as follows: asymmetric DAGS ECL, FkpA-Bi and Skp-Ru 10 ng/ml each; sample: pool of anti-HTLV-negative human sera; background signal, duplicate 1.
Test [7] has the same target. The experiment in a line: asymmetric DAGS ECL, FkpA-Bi and Skp-Ru 250 ng/ml each; sample: pool of anti-HTLV-negative human sera; background signal, duplicate 1.
For test [8] the target is unchanged. The experiment in a line: asymmetric DAGS ECL, FkpA-Bi and Skp-Ru 10 ng/ml each; sample: pool of anti-HTLV-negative human sera; background signal, duplicate 2.

UniProt P0AEU7, sequence (P0AEU7 21-161 limits assumed): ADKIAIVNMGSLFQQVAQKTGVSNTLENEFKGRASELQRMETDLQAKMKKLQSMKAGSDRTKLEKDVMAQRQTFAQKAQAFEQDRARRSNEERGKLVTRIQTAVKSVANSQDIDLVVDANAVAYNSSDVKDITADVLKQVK

For “EcFkpA, ruthenium conjugate (naked chaperone without fused target) (from UniProt P45523 26-270)”, the Signal (counts) in test [1] is 561 counts; in test [2], 2670 counts; in test [3] it was 567 counts; in test [4] it was 2760 counts.

Regarding “EcSkp, ruthenium conjugate (naked chaperone without fused target) (from UniProt P0AEU7 21-161)”, the Signal (counts) in test [5] was 864 counts; in test [6], 447 counts; in test [7], 854 counts; in test [8] it was 439 counts.

Values taken from US20170184591A1.
